Here are results for two substances from paper PMC3526290.

Assay [1] addresses Cac2 B domain (Saccharomyces cerevisiae) (UniProt Q04199). The conditions noted are these: cited from earlier work.
In assay [2] the target is Asf1 labeled with Alexa Fluor 532 (*Asf1), full-length (budding yeast) (UniProt P32447). The assay can be described thus: fluorescence polarisation; fluorescence anisotropy; 10 nM *Asf1 (alone or pre-bound to 20 nM H3/H4) or 100 nM *Asf1^1-169, Cac2 or CAF-1 titrated; 20 mM HEPES, 150 mM NaCl, pH 7.4, 20°C.
Assay [3] has the same target. The assay is described as follows: native gel or EMSA; labelled protein (*Asf1, 0.5 µM in Figure 1b, or H3/H4*) with Cac2 or CAF-1 titrated or at 20 µM; 10 mM Tris, 1 mM DTT, pH 8.0, 30 min on ice; 0.2x TBE 59:1 native gel on ice; fraction bound from band densities.

Chain of UniProt Q04199 (Q04199 449-468): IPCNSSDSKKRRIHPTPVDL

A word on the Kd: it is a measure of binding affinity in units of concentration. As for Asf1 (from UniProt P32447), the Kd in assay [1] was 1.5 µM.
As to “Chromatin Assembly Factor 1 (CAF-1) complex: Cac1, Cac2, Cac3 (from UniProt Q12495 1-606; Q04199 1-468; P13712 1-422)”, the dissociation constant (Kd) turned out to be 0.38 µM in assay [2] and 0.28 µM in assay [3].
